In patent US20250264476A1, “AMINO ACID-SPECIFIC BINDER AND SELECTIVELY IDENTIFYING AN AMINO ACID” (Government of the United States of America, as represented …, priority 2021, published 2025):

Tested on: biotinylated peptides that vary only by their N-terminal amino acid
Test: Bio-layer interferometry (BLI) binding of ClpS to biotinylated peptides on streptavidin probe
Conditions: ClpS at 0.312-40 μM in 20 mM HEPES pH 8, 150 mM KCl, 0.1% BSA, 0.05% Tween-20
Method: The initial binding activity of T. elongatus ClpS2 was characterized using bio-laver interferometry (BLI) In BLI, a functionalized fiber-optic probe is placed in a solution of analyte and the accumulation of analyte on the functional group of the probe is measured by changes in reflected light within the probe. A BLI probe functionalized with streptavidin is allowed to accumulate biotinylated peptide. Probes with peptide are then placed in solutions of ClpS of varying concentration and allowed to equilibrate. BLI response is then graphed to concentration to establish a binding curve. Dilutions of T. elongatus ClpS2 were made in 20 mM HEPES pH 8, 150 mM KCl, 0.1% BSA, and 0.05% Tween-20 at concentrations of 0.312, 0.625, 1.25, 2.5, 5, 10, 20, and 40 μM.
With regard to peptides, all peptides are named by indicating the first two residues, with the full sequence available in Table 3. All of the peptides had the same sequence for the C-terminal end of the peptide, XXAVECK (Sequence ID No. 18), where the N-terminal amino acids are varied. The peptides also contained a biotin linked via the lysine side chain on the C-terminal residue. X1G2 peptides started from a lyophilized form. Peptides were resuspended in 1×DPBS and diluted to the appropriate concentration into the experiment buffer. […]

Chain of biotinylated peptides that vary only by their N-terminal amino acid (as listed by the source): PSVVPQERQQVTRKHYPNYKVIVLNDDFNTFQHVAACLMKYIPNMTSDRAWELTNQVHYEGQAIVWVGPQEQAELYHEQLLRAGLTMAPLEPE

B1: T. elongatus ClpS2: wild-type ClpS protein, N-End Rule Pathway adaptor protein, parent of the engineered variants (protein, listed as Thermosynechococcus elongatus)
chain: ASVVPQEGQQVTRKHYPNYKVIVLNDDFNTFRHVAACLMKYIPNMTSDRAWELTNQVHYEGQAIVWVGPQEQAELYHEQLLRAGLTMAPLEPEGS
  binding preference across four peptides that vary only by their N-terminal amino acid: strong preference for binding leucine
